Measurements taken from article PMC3401432.
Where two headings read alike, the source gives them in different places.

How the values were obtained:
[1] = target: CryB, GAL4 binding domain fusion (pGBK-T7-cryB) (Rhodobacter sphaeroides); assay: two-hybrid
[2] = target: His-CryB, purified from E. coli (Rhodobacter sphaeroides); assay: MST
[3] = target: CryB, GAL4 binding domain fusion (pGBK-T7-cryB) (Rhodobacter sphaeroides); assay: two-hybrid; remark: listed apart in the source

“SCHIC domain of AppA, GAL4 activation domain fusion (pGAD-T7) (domain or fragment)” was tested, and the β-galactosidase activity, percent of the SV40 T antigen + p53 control [1] was 8%.

B1: MBP-AppA (full-length AppA tagged with maltose-binding protein) (natural protein)
chain: MQHDLEADVTMTGSDLVSCCYRSLAAPDLTLRDLLDIVETSQAHNARAQLTGALFYSQGVFFQWLEGRPAAVAEVMTHIQRDRRHSNVEILAEEPIAKRRFAGWHMQLSCSEADMRSLGLAESRQIVTVGRSLVADNTNIFSFDRIAAVRRFLSDVCAARTLAPDTPVEADTFALYALTEAQAGRSGRAKAVARLSDLLSTDPLGRLTEVEELLRAHAPTAADFARLFEACAERLTRALAEDRISRMQVTLAYSALQMALRRIHHLPDPQKSVGAVLVAGVPGHKPILEAALAAEMLRAVGWSTSVVHPESVAALAARLKTSRTSTLVVAPSLLEGTEQEADTLRFVSALRARTDLPGLSILVGGRLAQLPPSKLKDSGADAGFAHLALLPAALARVACPANADCCSMRACRMPASQCCDKRINPEFLLANVMPSVLTRISSRQDRRRSA
For B1, the Kd [2] was 595 nM.

B2: AppA full length, GAL4 activation domain fusion (pGAD-T7-appA) (natural protein)
chain: B1 chain
In the case of B2, the β-galactosidase activity, percent of the SV40 T antigen + p53 control [3] is reported as 40%.
